Test [1] addresses Heparin-Binding EGF-like Growth Factor, recombinant (UniProt Q99075). As to the kind of experiment: SPR.
Test [2] addresses diphtheria toxin receptor-binding fragment (lysosomal targeting moiety) (Corynebacterium diphtheriae, UniProt P00588 418-567). In words: SPR.

diphtheria toxin receptor-binding fragment (lysosomal targeting moiety), sequence (P00588 418-567): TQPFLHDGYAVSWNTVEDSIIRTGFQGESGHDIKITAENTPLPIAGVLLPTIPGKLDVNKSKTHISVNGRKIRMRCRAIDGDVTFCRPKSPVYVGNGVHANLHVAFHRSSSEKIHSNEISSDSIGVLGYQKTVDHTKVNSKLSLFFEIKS

On to “LTM-TPP1 (TPP1 with an N-terminal LTM fusion)”, for which the Kd in test [1] was 19.1 nM.

B1: Heparin-Binding EGF-like Growth Factor, recombinant (receptor, UniProt Q99075 63-148, looked up)
chain: DLQEADLDLLRVTLSSKPQALATPNKEEHGKRKKKGKGLGKKRDPCLRKYKDFCIHGECKYVKELRAPSCICHPGYHGERCHGLSL
Molecule B1 registered a Kd in test [2] of 13.3 nM.

The values above are taken from article doi:10.1101/2020.01.22.915298 (bioRxiv, 2020).
